Reference: patent publication US20210238260
Numbering of substitutions follows the chain as printed. Numbers in names are those of the source.

B1: FIXa D203N/F205T/K228N (protein)
chain 1: YNSGKLEEFVQGNLERECMEEKCSFEEAREVFENTERTTEFWKQYVDGDQCESNPCLNGGSCKDDINSYECWCPFGFEGKNCELDVTCNIKNGRCEQFCKNSADNKVVCSCTEGYRLAENQKSCEPAVPFPCGRVSVSQTSKLTR
chain 2: VVGGEDAKPGQFPWQVVLNGKVNATCGGSIVNEKWIVTAAHCVETGVNITVVAGEHNIEETEHTEQKRNVIRIIPHHNYNAAINKYNHDIALLELDEPLVLNSYVTPICIADKEYTNIFLKFGSGYVSGWGRVFHKGRSALVLQYLRVPLVDRATCLRSTKFTIYNNMFCAGFHEGGRDSCQGDSGGPHVTEVEGTSFLTGIISWGEECAMKGKYGIYTKVSRYVNWIKEKTKLT
B2: FIXa D104N/K106S/R318Y/R338E/E410N (protein)
chain 1: B1 chain 1 with D104N, K106S
chain 2: B1 chain 2 with N23D, T25F, N48K, R138Y, R158E, E230N
B3: FIXa Y155F/R318Y/R403E/E410N (protein)
chain 1: B1 chain 1
chain 2: B1 chain 2 with N23D, T25F, N48K, R138Y, R223E, E230N
B4: FIXa variant R318Y/R338E/R403E (protein)
chain 1: B1 chain 1
chain 2: B1 chain 2 with N23D, T25F, N48K, R138Y, R158E, R223E
B5: FIXa D203N/F205T/E410N (protein)
chain 1: B1 chain 1
chain 2: B1 chain 2 with N48K, E230N
B6: FIXa Y155F/K247N/N249S/R318Y/R338E/E410N (protein)
chain 1: B1 chain 1
chain 2: B1 chain 2 with N23D, T25F, N48K, K67N, N69S, R138Y, R158E, E230N
B7: FIXa K228N/R318Y/R338E/R403E/E410N (protein)
chain 1: B1 chain 1
chain 2: B1 chain 2 with N23D, T25F, R138Y, R158E, R223E, E230N
B8: FIXa D85N/K228N/R318Y/R338E/R403E/E410N (protein)
chain 1: B1 chain 1 with D85N
chain 2: B1 chain 2 with N23D, T25F, R138Y, R158E, R223E, E230N
B9: FIXa Y155F/I251S/R318Y/R338E/R403E/E410N (protein)
chain 1: B1 chain 1
chain 2: B1 chain 2 with N23D, T25F, N48K, I71S, R138Y, R158E, R223E, E230N
B10: FIXa R318Y/R338E/R403E/E410S (protein)
chain 1: B1 chain 1
chain 2: B1 chain 2 with N23D, T25F, N48K, R138Y, R158E, R223E, E230S
B11: FIXa variant R338E/R403E/E410N (protein)
chain 1: B1 chain 1
chain 2: B1 chain 2 with N23D, T25F, N48K, R158E, R223E, E230N
B12: FIXa D203N/F205T/R338E/R403E (protein)
chain 1: B1 chain 1
chain 2: B1 chain 2 with N48K, R158E, R223E
B13: FIXa R318Y/R338E/E410N (protein)
chain 1: B1 chain 1
chain 2: B1 chain 2 with N23D, T25F, N48K, R138Y, R158E, E230N
B14: FIXa variant Y155F/R318Y/R338E/R403E (protein)
chain 1: B1 chain 1
chain 2: B1 chain 2 with N23D, T25F, N48K, R138Y, R158E, R223E
B15: FIXa Y259F/K265T/Y345T (protein)
chain 1: B1 chain 1
chain 2: B1 chain 2 with N23D, T25F, N48K, Y79F, K85T, Y165T
B16: FIXa variant D203N/F205T/K228N (protein)
chain 1: B1 chain 1
chain 2: B1 chain 2
B17: FIXa R318Y/R338E/R403E/E410N (protein)
chain 1: B1 chain 1
chain 2: B1 chain 2 with N23D, T25F, N48K, R138Y, R158E, R223E, E230N
B18: FIXa I251S/R318Y/R338E/R403E/E410N (protein)
chain 1: B1 chain 1
chain 2: B1 chain 2 with N23D, T25F, N48K, I71S, R138Y, R158E, R223E, E230N
B19: FIXa Y155F/K228N/R318Y/R338E/R403E/E410N (protein)
chain 1: B1 chain 1
chain 2: B1 chain 2 with N23D, T25F, R138Y, R158E, R223E, E230N
B20: FIXa D104N/K106S/Y155F/K228N/K247N/N249S (protein)
chain 1: B1 chain 1 with D104N, K106S
chain 2: B1 chain 2 with N23D, T25F, K67N, N69S
B21: FIXa variant D203N/F205T/E410N (protein)
chain 1: B1 chain 1
chain 2: B1 chain 2 with N48K, E230N
B22: FIXa K228N/R338E/R403E (protein)
chain 1: B1 chain 1
chain 2: B1 chain 2 with N23D, T25F, R158E, R223E
B23: FIXa K228N/K247N/N249S (protein)
chain 1: B1 chain 1
chain 2: B1 chain 2 with N23D, T25F, K67N, N69S
B24: FIXa variant K293E/R338E/R403E (protein)
chain 1: B1 chain 1
chain 2: B1 chain 2 with N23D, T25F, N48K, K113E, R158E, R223E
B25: FIXa R318Y/R403E/E410N (protein)
chain 1: B1 chain 1
chain 2: B1 chain 2 with N23D, T25F, N48K, R138Y, R223E, E230N
B26: FIXa D203N/F205T/R338E (protein)
chain 1: B1 chain 1
chain 2: B1 chain 2 with N48K, R158E
B27: FIXa D203N/F205T/R338A (protein)
chain 1: B1 chain 1
chain 2: B1 chain 2 with N48K, R158A
B28: FIXa D203N/F205T/R318Y (protein)
chain 1: B1 chain 1
chain 2: B1 chain 2 with N48K, R138Y
B29: FIXa K247N/N249S/R318Y/R338E/E410N (protein)
chain 1: B1 chain 1
chain 2: B1 chain 2 with N23D, T25F, N48K, K67N, N69S, R138Y, R158E, E230N
B30: FIXa D104N/K106S/K228N/K247N/N249S (protein)
chain 1: B1 chain 1 with D104N, K106S
chain 2: B1 chain 2 with N23D, T25F, K67N, N69S
B31: FIXa D104N/K106S/I251S/R318Y/R338E/E410N (protein)
chain 1: B1 chain 1 with D104N, K106S
chain 2: B1 chain 2 with N23D, T25F, N48K, I71S, R138Y, R158E, E230N
B32: FIXa variant D203N/F205T/R338E (protein)
chain 1: B1 chain 1
chain 2: B1 chain 2 with N48K, R158E
B33: FIXa variant Y155F/R338E/R403E/E410N (protein)
chain 1: B1 chain 1
chain 2: B1 chain 2 with N23D, T25F, N48K, R158E, R223E, E230N
B34: FIXa I251S/R318Y/R338E/E410N (protein)
chain 1: B1 chain 1
chain 2: B1 chain 2 with N23D, T25F, N48K, I71S, R138Y, R158E, E230N
B35: FIXa D104N/K106S/K247N/N249S/R318Y/R338E/R403E/E410N (protein)
chain 1: B1 chain 1 with D104N, K106S
chain 2: B1 chain 2 with N23D, T25F, N48K, K67N, N69S, R138Y, R158E, R223E, E230N
B36: FIXa variant K293A/R338A/R403A (protein)
chain 1: B1 chain 1
chain 2: B1 chain 2 with N23D, T25F, N48K, K113A, R158A, R223A
B37: FIXa K228N/R318Y/E410N (protein)
chain 1: B1 chain 1
chain 2: B1 chain 2 with N23D, T25F, R138Y, E230N
B38: FIXa R318Y/R338E/E410S (protein)
chain 1: B1 chain 1
chain 2: B1 chain 2 with N23D, T25F, N48K, R138Y, R158E, E230S
B39: FIXa D104N/K106S/Y155F/K247N/N249S/R318Y/R338E/R403E/E410N (protein)
chain 1: B1 chain 1 with D104N, K106S
chain 2: B1 chain 2 with N23D, T25F, N48K, K67N, N69S, R138Y, R158E, R223E, E230N
B40: FIXa K247N/N249S/R318Y/R338E/R403E/E410N (protein)
chain 1: B1 chain 1
chain 2: B1 chain 2 with N23D, T25F, N48K, K67N, N69S, R138Y, R158E, R223E, E230N
B41: FIXa Y155F/R318Y/R338E/E410N (protein)
chain 1: B1 chain 1
chain 2: B1 chain 2 with N23D, T25F, N48K, R138Y, R158E, E230N
B42: FIXa A103N/N105S/K247N/N249S/R318Y/R338E/R403E/E410N (protein)
chain 1: B1 chain 1 with A103N, N105S
chain 2: B1 chain 2 with N23D, T25F, N48K, K67N, N69S, R138Y, R158E, R223E, E230N
B43: FIXa Y155F/K247N/N249S/R318Y/R338E/R403E/E410N (protein)
chain 1: B1 chain 1
chain 2: B1 chain 2 with N23D, T25F, N48K, K67N, N69S, R138Y, R158E, R223E, E230N

Molecular target: Factor X (FX), P00742
Sequence (P00742 whole entry, looked up): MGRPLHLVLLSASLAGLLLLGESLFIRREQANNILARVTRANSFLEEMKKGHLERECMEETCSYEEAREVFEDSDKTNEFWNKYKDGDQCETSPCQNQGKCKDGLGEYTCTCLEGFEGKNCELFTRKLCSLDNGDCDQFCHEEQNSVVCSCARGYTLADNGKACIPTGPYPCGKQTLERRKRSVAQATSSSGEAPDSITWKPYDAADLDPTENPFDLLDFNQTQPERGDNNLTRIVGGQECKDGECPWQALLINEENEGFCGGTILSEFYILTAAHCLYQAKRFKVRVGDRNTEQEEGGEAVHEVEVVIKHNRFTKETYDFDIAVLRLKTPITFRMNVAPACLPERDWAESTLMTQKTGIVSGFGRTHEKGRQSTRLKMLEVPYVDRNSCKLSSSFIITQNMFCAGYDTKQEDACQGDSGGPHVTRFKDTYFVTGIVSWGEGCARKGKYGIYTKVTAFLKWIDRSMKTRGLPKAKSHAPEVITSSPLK

Row | Protein | KM [µM] | KM (FX activation by FIXa in the Xase complex with FVIIIa, PC/PS vesicles and Ca2+) [µM] | also measured
1 | B1 | 0.0399 |  | 
2 | B2 | 0.0189 |  | 
3 | B3 | 0.111 |  | 
4 | B4 |  |  | % of WT kcat/KM: 134%; kcat/KM: 6.2e+07 M⁻¹ s⁻¹
5 | B5 | 0.0455 |  | 
6 | B6 |  | 0.0147 | 
7 | B7 |  | 0.0361 | 
8 | B8 |  | 0.0393 | 
9 | B9 |  | 0.0433 | 
10 | B10 |  | 0.0364 | 
11 | B11 |  |  | % of WT kcat/KM: 411%; kcat/KM: 1.9e+08 M⁻¹ s⁻¹
12 | B12 | 0.0511 |  | 
13 | B13 | 0.0139 |  | 
14 | B14 |  |  | % of WT kcat/KM: 189%; kcat/KM: 8.7e+07 M⁻¹ s⁻¹
15 | B15 |  | 0.0309 | 
16 | B16 |  |  | % of WT kcat/KM: 30%; kcat/KM: 1.4e+07 M⁻¹ s⁻¹
17 | B17 | 0.0432 |  | 
18 | B18 |  | 0.0334 | 
19 | B19 |  | 0.0408 | 
20 | B20 |  | 0.0753 | 
21 | B21 |  |  | % of WT kcat/KM: 91%; kcat/KM: 4.2e+07 M⁻¹ s⁻¹
22 | B22 | 0.0592 |  | 

Row | Protein | KM [µM] | KM (FX activation by FIXa in the Xase complex with FVIIIa, PC/PS vesicles and Ca2+) [µM] | also measured
23 | B23 |  | 0.0945 | 
24 | B24 |  |  | % of WT kcat/KM: 36%; kcat/KM: 1.7e+07 M⁻¹ s⁻¹
25 | B25 | 0.0942 |  | 
26 | B26 | 0.0241 |  | 
27 | B27 | 0.0385 |  | 
28 | B28 | 0.0475 |  | 
29 | B29 |  | 0.0166 | 
30 | B30 |  | 0.0771 | 
31 | B31 |  | 0.0243 | 
32 | B32 |  |  | % of WT kcat/KM: 228%; kcat/KM: 1e+08 M⁻¹ s⁻¹
33 | B33 |  |  | % of WT kcat/KM: 401%; kcat/KM: 1.8e+08 M⁻¹ s⁻¹
34 | B34 |  | 0.0161 | 
35 | B35 |  | 0.059 | 
36 | B36 |  |  | % of WT kcat/KM: 53%; kcat/KM: 2.5e+07 M⁻¹ s⁻¹
37 | B37 | 0.042 |  | 
38 | B38 |  | 0.0164 | 
39 | B39 |  | 0.0518 | 
40 | B40 |  | 0.0392 | 
41 | B41 | 0.016 |  | 
42 | B42 |  | 0.028 | 
43 | B43 |  | 0.0363 | 
